Test results: US20250145694A1 (GUANGDONG FEIPENG BIOLOGICAL, published 2025)
Substitutions are numbered along the chain they refer to.

B1: Mutation 1-1 (antibody)
heavy: EVQMVESGGGLLKPGGSLKLSCAASGFTFSNYAMSWVRQTPEKRLEWVATISSGGSYSFYPDSVKGRFTISRDNAKNTLYLQMLSLRSEDTAMYYCARRDNYYGSSFMDYWGQGSSVTVSSAKTTPPSVYPLAPGSAAQTNSMVTLGCLVKGYFPEPVTVTWNSGSLSSGVHTFPAVLQSDLYTLSSSVTVPSSTWPSQTVTCNVAHPASSTKVDKKIVPRDCGCKPCICTVPEVSSVFIFPPKPKDVLTITLTPKVTCVVVDISKDDPEVQFSWFVDDVEVHTAQTKPREEQFNSTFRSVSELPIMHQDWLNGKEFKCRVNSAAFPAPIEKTISKTKGRPKAPQVYTIPPPKEQMAKDKVSLTCMITNFFPEDITVEWQWNGQPAENYKNTQPIMDTDGSYFVYSKLNVQKSNWEAGNTFTCSVLHEGLHNHHTEKSLSHSPG
light: DIQMTQTSSSLSASLGDRVTISCRASQEITNYLNWYQQKPDGTIKLLIYYTSRIHSGVSSRFSGSGSGTDYSLTISNLEQEDIATYFCQQGHTLPLTFDTGTKLELKRADAAPTVSIFPPSSEQLTSGGASVVCFLNNFYPKDINVKWKIDGSERQNGVLNSWTDQDSKDSTYSMSSTLTLTKDEYERHNSYTCEATHKTSTSPIVKSFNRNEC
notes: assembled FR/CDR/constant
B2: Mutation 1-2 (antibody)
heavy: B1 heavy with F29Y, Y103P, S106T
light: B1 light with H92N, L94I
notes: assembled FR/CDR/constant
B3: Mutation 1-3 (antibody)
heavy: B1 heavy with F59Y, Y103P
light: B1 light with E28D, I54L
notes: assembled FR/CDR/constant
B4: Mutation 1-4 (antibody)
heavy: B1 heavy with F29Y, F59Y, Y103F, S106T
light: B1 light with H92N
notes: assembled FR/CDR/constant; Same printed sites as Mutation 1-40
B5: Mutation 1-5 (antibody)
heavy: B1 heavy with Y103F
light: B1 light
notes: assembled FR/CDR/constant
B6: Mutation 1-6 (antibody)
heavy: B1 heavy with F29Y
light: B1 light with E28D, I54L, H92N, L94I
notes: assembled FR/CDR/constant
B7: Mutation 1-7 (antibody)
heavy: B1 heavy with F59Y, Y103F, S106T
light: B1 light with L94I
notes: assembled FR/CDR/constant
B8: Mutation 1-8 (antibody)
heavy: B1 heavy with F29Y, F59Y, Y103F
light: B1 light with L94I
notes: assembled FR/CDR/constant
B9: Mutation 1-9 (antibody)
heavy: B1 heavy with S106T
light: B1 light with E28D, I54L, H92N
notes: assembled FR/CDR/constant
B10: Mutation 1-10 (antibody)
heavy: B1 heavy with F29Y
light: B1 light with E28D
notes: assembled FR/CDR/constant
B11: Mutation 1-11 (antibody)
heavy: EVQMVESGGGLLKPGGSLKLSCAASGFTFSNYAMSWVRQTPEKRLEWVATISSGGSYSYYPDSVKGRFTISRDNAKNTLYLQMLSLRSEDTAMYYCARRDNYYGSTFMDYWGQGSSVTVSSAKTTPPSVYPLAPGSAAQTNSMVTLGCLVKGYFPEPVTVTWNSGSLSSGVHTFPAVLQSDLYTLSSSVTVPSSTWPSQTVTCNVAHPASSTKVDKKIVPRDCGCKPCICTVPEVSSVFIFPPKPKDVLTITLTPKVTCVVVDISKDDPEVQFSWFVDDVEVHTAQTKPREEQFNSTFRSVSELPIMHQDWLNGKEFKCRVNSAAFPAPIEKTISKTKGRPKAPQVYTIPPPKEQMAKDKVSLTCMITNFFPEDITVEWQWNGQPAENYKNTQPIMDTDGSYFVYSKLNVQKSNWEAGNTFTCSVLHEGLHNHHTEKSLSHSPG
light: B1 light with E28D, I54L, H92N, L94I
notes: assembled FR/CDR/constant

Target: T1, CTNI quality control recombinant antigen (human, UniProt P19429 1-210, limits assumed)
T1 construct: Recombinant antigen produced by the applicant; also called CTNI quality control recombinant protein (antigen produced by the company); cardiac troponin I
T1 sequence (P19429 whole entry): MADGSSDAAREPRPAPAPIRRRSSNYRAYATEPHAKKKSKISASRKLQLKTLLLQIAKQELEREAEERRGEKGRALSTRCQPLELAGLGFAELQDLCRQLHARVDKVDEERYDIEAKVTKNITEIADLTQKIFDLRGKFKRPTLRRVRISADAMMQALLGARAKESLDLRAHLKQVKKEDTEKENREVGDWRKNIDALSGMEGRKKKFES
Assay: BLI, antibody on AMC sensor, cTnI in solution
Procedure: With an AMC sensor, the purified antibody was diluted to 10 μg/ml with PBST, and CTNI quality control recombinant protein (antigen produced by the company) was gradient diluted with PBST to 769.2 nmol/ml, 384.6 nmol/ml, 192.3 nmol/ml, 96.2 nmol/ml, 48.1 nmol/ml, 24 nmol/ml, 12 nmol/ml, and 0 nmol/ml.

Kd | koff | kon | Binder
3.47 nM | 0.000124 s⁻¹ | 35800 M⁻¹ s⁻¹ | B1
2.43 nM | 0.000129 s⁻¹ | 53200 M⁻¹ s⁻¹ | B2
4.58 nM | 5.73e-05 s⁻¹ | 12500 M⁻¹ s⁻¹ | B3
7.1 nM | 0.00053 s⁻¹ | 74600 M⁻¹ s⁻¹ | B4
0.83 nM | 0.000807 s⁻¹ | 972000 M⁻¹ s⁻¹ | B5
9.81 nM | 0.000275 s⁻¹ | 28000 M⁻¹ s⁻¹ | B6
4.71 nM | 0.000186 s⁻¹ | 39400 M⁻¹ s⁻¹ | B7
6.81 nM | 0.000667 s⁻¹ | 98000 M⁻¹ s⁻¹ | B8
8.6 nM | 0.000184 s⁻¹ | 21400 M⁻¹ s⁻¹ | B9
5.05 nM | 0.000346 s⁻¹ | 68500 M⁻¹ s⁻¹ | B10
4.4 nM | 4.75e-05 s⁻¹ | 10800 M⁻¹ s⁻¹ | B11
